Here are results for 1 substance from publication PMC4514675, “Novel Apo E-Derived ABCA1 Agonist Peptide (CS-6253) Promotes Reverse Cholesterol Transport and Induces Formation of preβ-1 HDL In Vitro” (PLoS ONE, 2015).

Experiment [1] relates to BHK-ABCA1 plasma membrane microdomains. Kind of experiment: Desorption of phosphatidylcholine and sphingomyelin species from raft and non-raft domains of BHK-ABCA1 cells. In kind it is cell-based, hamster. The note with it: 0.96 μM, 12 h. The procedure: Lipid labeling was performed as described previously with minor modifications. Briefly, BHK-cells were labeled with either 5 μCi/ml ^3[H] choline (Perkin-Elmer) for 48 h or 3 μCi/ml ^3[H] cholesterol (Perkin-Elmer) for 24 h, and then stimulated as described above. Cells were subsequently incubated with lipid-free apoA-I or CS-6253 at (0.96 μM) for 12h, and fractionated by sucrose gradient in the presence of 0.2% Triton X-100. For each fraction, lipids were extracted by Folch and ^3[H]choline-labeled PtdCho, and SM were separated by TLC in the solvent system chloroform-methanol-water (65:35:4; v/v/v), and counted.
Fig 4 Apo A-I (left panels) and CS-6253 (right panels) desorb phospholipids species from raft and nonraft domains. […] After lipid extraction by Folch, ^3[H]phosphatidyl choline (^3[H]PC) (A and B), or ^3[H]sphingomyelin (^3[H]SM) (C and D) in each fraction was assessed for radioactivity. Radioactivity appearing in fractions corresponding to raft (1–5) and nonraft (6–10) material was pooled, and desorption of ^3[H]PC (A and B inset) and ^3[H]SM (C and D inset), from raft versus nonraft in the presence of apo A-I or CS-6253 was expressed as a percentage of control (100%, in the absence of acceptor). ^3[H]PC and ^3[H]SM distributions in sucrose gradient fractions after 12h incubation with apo A-I or CS-6253 were assessed by TLC respectively. […]

Experiment [2] deals with ABCA1 (Homo sapiens, UniProt O95477). Kind of experiment: ABCA1-mediated cholesterol efflux from BHK-ABCA1 cells after pre-incubation of acceptor in human plasma. It is filed as cell-based. Also on record: expressed in transfected cells; host or cells: BHK cells, stably transfected, induced with 10 nM mifepristone (gift of J. F. Oram). The protocol: We investigated cholesterol efflux from BHK cells after adding lipid free CS-6253 to media cell culture or to human EDTA-plasma which had been stored at -80°C. BHK overexpressing human ABCA1 were labeled with 2 μCi/ml ^3H-free cholesterol (Perkin Elmer, Norwalk, Connecticut) for 24 h. Afterward, BHK-ABCA1 were stimulated with 10 nmol/l mifepristone for 18–20 h (13). Cells were incubated with various doses of acceptor in media for 4 h at 37°C. Alternatively, plasma samples were first pre-incubated for 5 min at 37°C in plasma at mole ratios (10:1 or 1:1 relative to plasma apo A-I). To obtain the HDL fraction, apoB lipoproteins were precipitated from plasma by polyethylene glycol (PEG). Also, increased doses of lipid free CS-6253 and nHDL-CS-6253 were tested for cholesterol efflux after incubation with human plasma for optimum 1h at 37°C. ^3[H]-cholesterol loaded BHK cells expressing ABCA1 were incubated with 2.8% apoB depleted plasma samples [19] for 4 h for the efflux assays. Lipid free apo A-I and nHDL-apo A-I were used as control, nHDL-CS-6253 and nHDL-apo A-I were generated after incubation with BHK cells expressing ABCA1. Direct comparisons with peptide ATI-5261 are provided using identical protocols (12).
Fig 7 Dose dependent effects of pre-incubation of plasma with lipid free CS-6253, or nHDL-CS-6253 on ABCA1 cholesterol efflux. A. Increased doses of lipid free CS-6253 or apo A-I were added to normolipidemic plasma and incubated for 1h at 37°C. A volume of 2.8% of HDL fractions isolated by PEG was used for the measurements of cholesterol efflux from BHK cells expressing ABCA1 and mock cells. […] B. nHDL-CS-6253 and nHDL-apo A-I were generated as indicated above. nHDL particles were incubated in plasma for 1h at 37°C, and specific HDL fractions isolated by PEG were subjected to cholesterol efflux in ^3[H]-radiolabelled BHK cells. […] C. Mobilization of cholesterol efflux of increasing concentrations of peptide: plasma apo A-I molar ratios: (1:0) (closed circles), (1:10) (upright closed triangles), and (1:1) (closed squares). (C inset). The double reciprocal-plot was used to calculate the apparent appKm of the efflux activity in peptide: plasma with indicated ratios. Kinetics values are as follows, molar ratio of plasma apo A-I: CS-6253 (1:0); appKm (28±0.07 μM). Molar ratio of plasma apo A-I: CS-6253 (1:1); appKm (4.17±0.47 μM). Molar ratio of plasma apo A-I: CS-6253 (1:10); appKm (0.71±0.46 μM). D. Lipid free CS-6253 was incubated with normolipidemic plasma, using peptide: apo A-I mole ratio of (1:1) for 5 min at 37°C versus plasma alone. Isolated HDL fractions by PEG were separated by 2D-PAGGE and HDL subpopulations were detected by apo A-I Western blot. Molecular size markers are shown. In all experiments, efflux of ^3[H]cholesterol is shown as means ± SD of triplicate experiments.

Several values for one entry are separate records, joined by “and”; a condition that tells them apart may be missing. Identical values can stand only once. Like-named read-outs stand apart in the source and are kept apart here.

Chain of ABCA1 (O95477 whole entry): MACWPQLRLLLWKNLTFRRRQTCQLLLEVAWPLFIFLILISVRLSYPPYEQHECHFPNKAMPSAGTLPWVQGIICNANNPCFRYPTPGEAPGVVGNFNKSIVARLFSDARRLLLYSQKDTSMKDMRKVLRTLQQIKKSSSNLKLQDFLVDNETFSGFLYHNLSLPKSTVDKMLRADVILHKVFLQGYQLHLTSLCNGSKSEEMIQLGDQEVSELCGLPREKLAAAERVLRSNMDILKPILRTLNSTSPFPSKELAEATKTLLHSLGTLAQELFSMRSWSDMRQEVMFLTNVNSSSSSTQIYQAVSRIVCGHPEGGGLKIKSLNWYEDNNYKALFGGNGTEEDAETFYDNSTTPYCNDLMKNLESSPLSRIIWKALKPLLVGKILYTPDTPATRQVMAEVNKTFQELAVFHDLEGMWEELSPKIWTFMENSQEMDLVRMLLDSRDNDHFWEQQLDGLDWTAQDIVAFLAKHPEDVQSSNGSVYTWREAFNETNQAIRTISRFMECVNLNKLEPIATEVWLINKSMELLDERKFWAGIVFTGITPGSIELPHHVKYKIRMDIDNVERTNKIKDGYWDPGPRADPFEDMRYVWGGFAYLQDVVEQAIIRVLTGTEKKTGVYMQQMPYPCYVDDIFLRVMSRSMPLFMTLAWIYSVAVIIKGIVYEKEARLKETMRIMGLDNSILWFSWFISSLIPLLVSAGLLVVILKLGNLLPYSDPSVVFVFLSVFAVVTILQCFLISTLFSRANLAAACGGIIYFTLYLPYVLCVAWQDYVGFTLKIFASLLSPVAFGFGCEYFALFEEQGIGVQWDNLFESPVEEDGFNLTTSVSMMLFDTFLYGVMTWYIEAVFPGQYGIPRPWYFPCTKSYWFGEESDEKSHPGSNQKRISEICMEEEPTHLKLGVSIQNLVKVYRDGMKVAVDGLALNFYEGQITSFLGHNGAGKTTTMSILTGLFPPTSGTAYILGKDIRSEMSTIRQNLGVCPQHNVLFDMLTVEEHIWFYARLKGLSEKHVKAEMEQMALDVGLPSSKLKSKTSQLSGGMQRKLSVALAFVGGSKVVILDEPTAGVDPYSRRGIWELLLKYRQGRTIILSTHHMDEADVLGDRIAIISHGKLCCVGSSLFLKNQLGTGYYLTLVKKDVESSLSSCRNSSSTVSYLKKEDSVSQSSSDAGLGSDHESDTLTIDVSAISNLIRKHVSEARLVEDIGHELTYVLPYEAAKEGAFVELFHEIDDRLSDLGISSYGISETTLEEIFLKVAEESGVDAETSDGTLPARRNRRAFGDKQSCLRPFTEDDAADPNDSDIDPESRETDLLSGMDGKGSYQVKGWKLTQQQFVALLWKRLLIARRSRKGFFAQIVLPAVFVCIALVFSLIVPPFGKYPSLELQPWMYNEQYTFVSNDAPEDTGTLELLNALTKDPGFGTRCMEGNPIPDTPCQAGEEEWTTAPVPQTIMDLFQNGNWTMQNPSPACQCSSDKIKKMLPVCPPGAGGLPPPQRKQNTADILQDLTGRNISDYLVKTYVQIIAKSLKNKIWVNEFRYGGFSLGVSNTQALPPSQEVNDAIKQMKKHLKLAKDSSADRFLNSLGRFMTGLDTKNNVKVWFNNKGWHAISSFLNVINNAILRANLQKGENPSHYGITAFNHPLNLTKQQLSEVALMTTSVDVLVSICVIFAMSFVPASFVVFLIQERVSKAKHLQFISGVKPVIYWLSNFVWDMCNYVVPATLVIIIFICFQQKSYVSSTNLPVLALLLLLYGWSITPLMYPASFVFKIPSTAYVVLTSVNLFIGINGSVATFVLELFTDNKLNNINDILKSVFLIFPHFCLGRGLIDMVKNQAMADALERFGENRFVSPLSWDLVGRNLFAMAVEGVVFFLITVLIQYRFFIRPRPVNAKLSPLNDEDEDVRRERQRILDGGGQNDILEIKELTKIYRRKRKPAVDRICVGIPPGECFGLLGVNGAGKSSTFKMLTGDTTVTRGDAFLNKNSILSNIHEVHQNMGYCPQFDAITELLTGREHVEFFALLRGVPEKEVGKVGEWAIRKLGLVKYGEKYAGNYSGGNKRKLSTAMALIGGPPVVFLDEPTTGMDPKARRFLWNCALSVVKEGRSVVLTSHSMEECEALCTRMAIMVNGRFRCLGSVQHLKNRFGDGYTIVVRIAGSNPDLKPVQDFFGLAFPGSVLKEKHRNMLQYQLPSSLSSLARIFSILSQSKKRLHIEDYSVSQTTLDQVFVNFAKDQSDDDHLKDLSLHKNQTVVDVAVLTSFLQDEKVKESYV

For the substance apolipoprotein A-I [apo A-I], in experiment [1], the “PC desorption in PM microdomains (in words)” value is given as “less PC desorption in PM microdomains than CS-6253”; the SM desorption result was “desorbed from both non-raft and raft domains”. Also, in experiment [2] (acceptor in human plasma 1 h 37°C, 2.8% HDL fraction, 4 h, BHK-ABCA1, Fig 7A/7B, read-out: Km, cholesterol efflux, plasma (Fig 7)), the Michaelis-Menten constant (Km) was 0.03 ± 0.008 µM. For the same substance, the “Vmax, cholesterol efflux, plasma (Fig 7)” value in experiment [2] (acceptor in human plasma 1 h 37°C, 2.8% HDL fraction, BHK-ABCA1, Fig 7A/7B) stood at 9.26±0.29 % efflux/4h. Moreover, in experiment [2] (efflux condition plasma, 4 h, BHK-ABCA1, Table 1, mean ± SD), the “Vmax, cholesterol efflux, plasma (Table 1)” value was found to be 8.81±0.33 % efflux/4h. The Km in experiment [2] (efflux condition plasma, 4 h, BHK-ABCA1, Table 1, mean ± SD, read-out: Km, cholesterol efflux, plasma (Table 1)) came out at 0.02 ± 0.0091 µM. The “appKm, HDL specific cholesterol efflux, plasma apo A-I alone” value in experiment [2] (no peptide, 5 min, 37°C, efflux 4 h, Lineweaver-Burk, listed as plasma apo A-I) was 28 ± 0.072 µM and 28 ± 0.07 µM.
